According to patent publication US20240368286A1 (SHANGHAI JMT BIO TECHNOLOGY, published 2024):
Substitutions are numbered along the chain they refer to.

T1: Human GFRAL protein (Biacore analyte) (human, UniProt Q6UXV0 19-351, limits assumed)
T1 construct: also called hGFRAL
T1 sequence (looked up): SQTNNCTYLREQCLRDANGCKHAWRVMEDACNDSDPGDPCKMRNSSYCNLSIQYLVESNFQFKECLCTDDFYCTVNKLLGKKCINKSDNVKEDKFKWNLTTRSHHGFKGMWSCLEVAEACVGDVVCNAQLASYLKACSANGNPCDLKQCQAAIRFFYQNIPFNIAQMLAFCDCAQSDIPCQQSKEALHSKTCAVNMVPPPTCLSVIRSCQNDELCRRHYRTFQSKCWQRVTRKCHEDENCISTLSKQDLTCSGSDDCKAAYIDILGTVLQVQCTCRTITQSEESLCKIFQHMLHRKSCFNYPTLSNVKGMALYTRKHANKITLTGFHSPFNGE

T2: Mouse GFRAL protein (Biacore analyte) (mouse, UniProt Q6SJE0 20-349, limits assumed)
T2 construct: also called mGFRAL
T2 sequence (looked up): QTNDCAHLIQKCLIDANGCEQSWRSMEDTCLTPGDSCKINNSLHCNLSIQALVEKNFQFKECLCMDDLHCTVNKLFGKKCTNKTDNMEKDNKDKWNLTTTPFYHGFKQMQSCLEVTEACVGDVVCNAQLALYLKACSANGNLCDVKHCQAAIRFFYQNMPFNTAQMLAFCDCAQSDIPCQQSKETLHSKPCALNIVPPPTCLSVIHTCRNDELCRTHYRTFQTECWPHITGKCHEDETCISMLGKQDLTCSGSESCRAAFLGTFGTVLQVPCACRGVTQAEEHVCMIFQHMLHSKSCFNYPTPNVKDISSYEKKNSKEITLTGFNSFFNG

T3: Human GFRAL (hGFRAL) on HEK293 reporter cells with human RET (human, UniProt Q6UXV0 19-394)
T3 sequence (looked up): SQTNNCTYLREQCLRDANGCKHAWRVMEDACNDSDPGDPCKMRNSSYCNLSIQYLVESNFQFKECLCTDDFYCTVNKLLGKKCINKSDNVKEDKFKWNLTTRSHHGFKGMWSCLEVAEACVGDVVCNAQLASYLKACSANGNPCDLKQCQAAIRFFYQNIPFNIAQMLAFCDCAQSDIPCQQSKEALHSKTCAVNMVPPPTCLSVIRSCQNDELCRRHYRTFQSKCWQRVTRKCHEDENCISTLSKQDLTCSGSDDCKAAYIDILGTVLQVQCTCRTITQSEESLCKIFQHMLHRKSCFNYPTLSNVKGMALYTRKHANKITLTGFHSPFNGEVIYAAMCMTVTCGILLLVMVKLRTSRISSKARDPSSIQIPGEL

T4: Mouse GFRAL (mGFRAL) on HEK293 reporter cells with mouse RET (mouse, UniProt Q6SJE0 20-393)
T4 sequence (looked up): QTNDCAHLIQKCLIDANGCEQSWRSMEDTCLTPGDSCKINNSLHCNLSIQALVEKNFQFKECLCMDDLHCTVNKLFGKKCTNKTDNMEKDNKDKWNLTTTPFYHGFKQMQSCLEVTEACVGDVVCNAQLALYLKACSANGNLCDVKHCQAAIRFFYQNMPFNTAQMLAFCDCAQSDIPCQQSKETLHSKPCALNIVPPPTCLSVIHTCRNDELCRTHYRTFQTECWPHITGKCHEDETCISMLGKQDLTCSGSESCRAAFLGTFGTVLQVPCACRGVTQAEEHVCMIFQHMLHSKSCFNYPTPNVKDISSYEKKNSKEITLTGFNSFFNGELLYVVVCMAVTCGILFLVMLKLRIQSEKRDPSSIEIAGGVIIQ

T5: Mouse GFRAL-Fc protein (mouse, UniProt Q6SJE0 20-349, limits assumed)
T5 construct: not shown: Fc
T5 sequence (looked up): T2 sequence (looked up)

T6: Human GFRAL-His protein (human, UniProt Q6UXV0 19-351)
T6 construct: also called human GFRAL-His fusion protein; not shown: His tag
T6 sequence (looked up): T1 sequence (looked up)

B1: 26D7H3aL2c (antibody, V domains shown)
VH: QVQLVQSGAEVKKPGASVKISCKVSGYTFTDYGMNWVRQTPGQGLKWVGWINTYTGEPTYADDFKDRFTFTLDASTSTAYMELRSLRSDDTAVYFCARRYGYDAGIDAWGQGTLVTVSS
VL: EIVLTQSPGTLSLSPGERATLSCRASESVESYGNNLMHWYQQKPGQAPRLLIYLASYLESGVPDRFSGSGSGTDFTLTISRLEPEDFATYYCQQNNESPWTFGQGTKVEIK
notes: Humanized; also called humanized anti-GFRAL antibody 26D7H3aL2c
B2: 26D7H5bL5a (antibody, V domains shown)
VH: QVQLVQSGAEVKKPGASVKVSCKVSGYTFTDYGMNWVRQAPGQGLEWMGWINTYTGEPTYAQKLQGRVTFTTDTSTSTAYMELRSLRSDDTAVYYCARRYGYDAGIDAWGQGTTVTVSS
VL: DIQMTQSPSSLSASVGDRVTITCRASESVESYGNNLMHWYQQKPGKAPKLLIYLASYLESGVPSRFSGSGSGTDFTLTISSLQPEDFATYYCQQNNESPWTFGGGTKLEIK
notes: Humanized; also called humanized anti-GFRAL antibody 26D7H5bL5a
B3: 8E10 (antibody, V domains shown)
VH: QVQLQQSGSELVRPGSSVKISCRASGYTFSNYWMNWVKQRPGQGLEWIGQIYPGDDDADYNGKFQGKATLTADKSSSTAYMQLNTLTSEDSAVYFCTRSGRRDFDYWGQGTTLTVSS
VL: NIVLTQSPASLAVSLGQRATISCRASESIDNYGNSFMHWYQQKPGQPPKLLIYRASNLESGVPARFSGSGSRTDFTLTIDPVEADDAATYYCQQNNEDPYTFGGGTKLEIK
notes: Murine hybridoma antibody, purified
B4: 168A7 (antibody, V domains shown)
VH: QVTLKESGPGILKPSQTLSLTCSFSGFSLSTSDMGVGWIRQPSGKGLEWLAHIWWDDDKYYNPSLKRQLTISKDNSRNQVFLKISSVDTTDTATYYCARLYDYDDEYYFDYWGQGTTLTVSS
VL: DIQMTQTKSSLSASLGDRVTISCRASQDSNNYLNWYQQKPDGTVKLLIYYTSRLHSGVPSRFSGSGSGTDYSLTISNLEHEDIATYFCQQGNTIPWTFGGGTKLEIK
notes: as for B3
B5: 174D6 (antibody, V domains shown)
VH: QVQLKQSGPGLVQPSQSLSITCTVSGFSLTSYGVHWVRQSPGKGLEWLGVIWSGGRTDYNAAFISRLNISKDSSKSQVFFKMNSLQADDTAIYYCARKGSSYYGLYYYGMDFWGQGTSVTVSS
VL: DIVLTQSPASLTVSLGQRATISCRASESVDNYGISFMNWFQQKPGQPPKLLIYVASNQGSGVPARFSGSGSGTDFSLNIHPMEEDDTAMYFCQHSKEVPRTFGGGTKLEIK
notes: as for B3
B6: 174E10 (antibody, V domains shown)
VH: B5 VH with T57I, N68S, S73N, F112Y
VL: DIVMTQSPSSLTVTAGEKVTMSCKSSQSLLNSGNQKNYLTWYQQKSGQTPKLLIYWASTRESGVPDRFTGSGSGTDFTLTISSVQAEDLAVYYCQNDYGYPLTFGAGTKLELK
notes: as for B3
B7: 2D4 (antibody, V domains shown)
VH: EVNLVESGGGLVKPGGPLKLSCAASGFTFSSFVMSWVRQTPEKRLEWVASITSGGTTFYPDSVKGRFTISRDNARNILYLQMSNLRSGDTAMYYCARGPPQFSSLSMDYWGQGTSVTVSS
VL: DIVMTQSQKFMSTSVGDRITITCKASQNVGTAVSWFQQKPGQVPKLLIYSASNRYTGVPDRFTGSGSGTEFTLTISNIQSEDLADYFCQQYSSLFTFGSGTKLEIK
notes: as for B3
B8: 165C5 (antibody, V domains shown)
VH: EVKLVESGGGLVKPGGSLKLSCAASGFTFSSYAMSWVRQTPEKRLEWVASITTGGSTYYLDSVRGRFTISRDNARNILSLQMSSLRSEDTAIYYCARSLIITATGFDYWGQGTTLTVSS
VL: DIVMTQSQKFMSISVGDRVNITCRASQDVGTAVAWYQQKPGQSPKLLIYSASNRYTGVPNRFTGSGSGTDFTLAISNMQSEDLADYFCQQYSIYYTFGGGTKLEIK
notes: as for B3

target: T1, Human GFRAL protein (Biacore analyte); test: Biacore SPR, humanized antibody captured via murine anti-human Fc on CM5, GFRAL injected in 2-fold dilutions, 25 C
Description: (§1) Specific protocols are as follows.
(§2) The surface of the CM5 chip was activated using 400 mM EDC and 100 mM NHS at a flow rate of 10 μl/min according to the instructions for the amino-coupled kit (Cat. No. BR100050, Cytiva). Then, the murine anti-human Fc antibody was immobilized in the test channel (Fc2) and the reference channel (Fc1) of the CM5 chip. Finally, the chip was blocked with 1 M ethanolamine at a flow rate of 10 μl/min; The humanized antibody (˜300 RU) diluted to 5 μg/ml was then captured on the assay channel (Fc2), and ligand capture were not carried out on the reference channel. Human, mouse or cynomolgus monkey GFRAL proteins (in a HBS-EP buffer) with 2-fold doubling dilutions was subsequently injected at a flow rate of 30 μL/min and the binding kinetics were evaluated at 25° C. The results are as follows (see Table 12)

| Binder | Kd [nM] | koff [s⁻¹] |
| --- | --- | --- |
| B1 | 0.0465 | 0.000125 |
| B2 | 0.119 | 0.000268 |

target: Cynomolgus monkey GFRAL protein (Biacore analyte) (cynomolgus monkey); test: as above
Description: as §1, §2

| Binder | Kd [nM] | koff [s⁻¹] |
| --- | --- | --- |
| B1 | 0.131 | 0.000193 |
| B2 | 0.246 | 0.000231 |

target: T2, Mouse GFRAL protein (Biacore analyte); test: as above
Description: as §1, §2

| Binder | koff [s⁻¹] |
| --- | --- |
| B1 | 0.000215 |
| B2 | 0.000314 |

target: T3, Human GFRAL (hGFRAL) on HEK293 reporter …; test: cell-based or functional assay

| Binder | IC50 (nM), luciferase reporter gene assay, Human GFRAL/human RET [nM] |
| --- | --- |
| B3 | 3.33 |
| B4 | 3.29 |
| B5 | 104 |
| B6 | 37.2 |
| B7 | 11.6 |
| B8 | 55.5 |

target: T4, Mouse GFRAL (mGFRAL) on HEK293 reporter …; test: cell-based or functional assay

| Binder | IC50 (nM), luciferase reporter gene assay, Mouse GFRAL/mouse RET [nM] |
| --- | --- |
| B3 | > 694 |
| B4 | > 694 |
| B5 | > 694 |
| B6 | 105 |
| B7 | 2.23 |
| B8 | 7.22 |

target: T3, Human GFRAL (hGFRAL) on HEK293 reporter …; test: cell-based or functional assay; remark: another data set of the same source

| Binder | IC50 (nM), luciferase reporter gene assay, Human GFRAL/human RET [nM] |
| --- | --- |
| B1 | 8.3 |
| B2 | 11.8 |

target: T4, Mouse GFRAL (mGFRAL) on HEK293 reporter …; test: cell-based or functional assay; remark: another data set of the same source

| Binder | IC50 (nM), luciferase reporter gene assay, Mouse GFRAL/mouse RET [nM] |
| --- | --- |
| B1 | 1.9 |
| B2 | 0.9 |

target: T1, Human GFRAL protein (Biacore analyte); test: Biacore SPR, antibody captured via anti-human Fc on CM5, GFRAL injected, 25 C
Description: Binding affinity assays were performed for three antibody strains 168A7, 8E10 and 26D7 based on the Biacore affinity assay. The binding affinities of purified antibodies to human or mouse GFRAL were assessed by measuring the equilibrium dissociation constants (KD). The anti-human Fc antibody was immobilized in the flow cell of the CM5 chip according to the instructions of the amino-coupled kit (catalogue number: BR100050, Cytiva). Purified antibodies (˜300 RU) were captured on flow cells 2, 3 and 4 using flow cell 1 as a reference. Human or mouse GFRAL protein (in an HBS-EP buffer) was then injected at a flow rate of 30 μL/min and the binding kinetics were evaluated at 25° C. The results were as follows (FIGS. 1A-1C, Table 4)

| Binder | Kd [nM] | koff [s⁻¹] |
| --- | --- | --- |
| B3 | 0.0179 | 0.000404 |
| B4 | 0.00145 | 7.06e-05 |

target: Cynomolgus monkey GFRAL-His protein (cynomolgus monkey); test: ELISA, antigen coated on plate, purified antibody titrated, HRP anti-mouse IgG detection
Description: (§3) The ELISA assay had the following protocols. Human GFRAL-His protein, cynomolgus monkey GFRAL-His protein, or mouse GFRAL-Fc protein were coated on 96-well plates, and after blocking the wells with PBS/1% BSA solution, the hybridoma supernatant or purified antibodies were added to the reaction wells. After incubation for 1 hour at room temperature, HRP-labeled anti-mouse IgG (Fab region) antibody was added to the reaction wells to incubate for an additional hour at room temperature. After the substrate and stop solution were added successively, the OD₄₅₀ values were read. The OD₄₅₀ values were used to verify and assess the binding ability of the antibodies to the GFRAL proteins.

| Binder | EC50 [nM] |
| --- | --- |
| B3 | 0.06 |
| B4 | 0.09 |
| B5 | 0.07 |
| B6 | 0.06 |
| B7 | 0.1 |
| B8 | 0.03 |

target: T5, Mouse GFRAL-Fc protein; test: as above
Description: as §3

| Binder | EC50 [nM] |
| --- | --- |
| B5 | 0.14 |
| B6 | 0.12 |
| B7 | 0.08 |
| B8 | 0.12 |

target: T6, Human GFRAL-His protein; test: as above
Description: as §3

| Binder | EC50 [nM] |
| --- | --- |
| B3 | 0.05 |
| B4 | 1.87 |
| B5 | 0.28 |
| B6 | 0.18 |
| B7 | 0.09 |
| B8 | 0.27 |
